Laboratory results reported in publication PMC3093367.
Several values for one entry are separate records, joined by “and”; a condition that tells them apart may be missing. Identical values can stand only once.

T1: RVFV nucleoprotein N (SEC fraction N2) (Rift Valley fever virus (strain …, UniProt D3K5I7 1-245))
T1 sequence: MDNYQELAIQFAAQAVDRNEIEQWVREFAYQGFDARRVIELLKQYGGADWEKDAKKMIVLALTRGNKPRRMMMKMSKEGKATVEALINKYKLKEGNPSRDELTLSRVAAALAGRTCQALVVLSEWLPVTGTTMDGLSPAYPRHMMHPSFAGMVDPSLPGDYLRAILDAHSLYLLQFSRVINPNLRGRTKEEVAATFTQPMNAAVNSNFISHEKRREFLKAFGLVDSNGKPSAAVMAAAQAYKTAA


How the values were obtained:
[1] = target: Rift Valley fever virus nucleoprotein (N), recombinant wild type (Rift Valley fever virus (strain Smithburn)) (UniProt P21700); assay: cross-linking
[2] = target: Rift Valley fever virus nucleoprotein (N), recombinant wild type (Rift Valley fever virus (strain Smithburn)) (UniProt P21700); assay: crystal structure
[3] = target: T1, RVFV nucleoprotein N (SEC fraction N2); assay: SPR; RNA immobilized via biotin-NeutrAvidin; SPR (ProteOn XPR36, […]; temperature not stated; conditions: protein: recombinant; tags: N-terminal thioredoxin-His6 tag removed by TEV; label: 3' biotin; single strand

Chain of Rift Valley fever virus nucleoprotein (N), recombinant wild type (P21700 whole entry): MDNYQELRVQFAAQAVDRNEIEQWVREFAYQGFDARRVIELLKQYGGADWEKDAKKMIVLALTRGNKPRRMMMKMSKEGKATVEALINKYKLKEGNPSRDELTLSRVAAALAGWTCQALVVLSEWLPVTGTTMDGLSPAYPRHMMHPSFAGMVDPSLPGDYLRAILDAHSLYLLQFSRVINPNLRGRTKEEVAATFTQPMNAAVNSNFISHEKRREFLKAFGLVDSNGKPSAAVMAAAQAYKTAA

| Molecule | stoichiometry N [1] | stoichiometry N [2] | Kd [3] |
| --- | --- | --- | --- |
| Rift Valley fever virus nucleoprotein (N), recombinant wild type (from UniProt P21700 1-245) (natural protein) | 2 and 3 and 4 | 6 |  |
| GAGUUGUUAAUCUUUUUUUU (ssRNA) [RNA20-3'biotin] |  |  | 3.8 µM |
